B1: Akt PH domain: Akt Pleckstrin Homology (PH) domain (positions 6 to 110), fluorescently labelled, expressed in Escherichia coli (protein, UniProt P31749 6-110, looked up, fragment)
chain: IVKEGWLHKRGEYIKTWRPRYFLLKNDGTFIGYKERPQDVDQREAPLNNFSVAQCQLMKTERPRPNTFIIRCLQWTTVIERTFHVETPEEREEWTTAIQTVADGL
modifications: PH domain fluorescent label
notes: Akt Pleckstrin Homology (PH) domain (positions 6 to 110), fluorescently labelled, expressed in Escherichia coli
B2: Hsv2: Hsv2 protein (PROPPIN domain), GFP-tagged fusion (protein, UniProt P50079 1-448, looked up)
SVP1-like protein 2: MDVRRPIREAVNNRRKPKFLSVSFNQDDSCFSVALENGFRIFNTDPLTSKLSKTFKESATNQSRGTGIGYTRMLYRTNYIALVGGGKRPRHALNKLIIWDDLLQKETITLKFMSSIKDVFLSRIHIVVVLENTIEIFQFQTNPQRICPILDIPPNGSVDYVVCSSKHLQSQASQSQSKILEIIAFPSNKCVGQIQVADLSQIKYNSQNPKESALLPTSIIKAHKNPIKLVRLNRQGTMVATCSVQGTLIRIFSTHNGTLIKEFRRGVDKADIYEMSFSPNGSKLAVLSNKQTLHIFQIFETTNTETNTPDHSRANGSSHPLKNYIPKGLWRPKYLDSVWSICNAHLKNPIFDAHRNDNSGDVTHDNEFYKDRCRIGWCQDSNNREQDDSLVLVWQNSGIWEKFVILEKEQQDSSKTHYSLNESLRNEDTKSAGEPTRWELVRESWREL
modifications: GFP tag
notes: Hsv2 protein (PROPPIN domain), GFP-tagged fusion

What was measured:
[1] = Liposome array cooperative membrane recruitment (NBI); conditions: GFP-tagged fusion, cooperative binding
Source text: FIG. 13: High-throughput image processing and calculation of normalized binding intensity. (a) Image processing pipeline. Multiple images are acquired, one exposure time for Atto647 and multiple exposure times for GFP to capture broad range of binding intensities, from strong (short exp. times) to weak (longer exp. times). All images are then processed with CellProfiler software. After removal of background, the Atto647 image is used for segmentation to obtain a mask representing position of liposome membranes. In parallel the combination of overexposed pixels from both channels (Atto647 and GFP) is removed from every pair of Atto647 and GFP image. Subsequently, a mask is applied to all filtered (i.e. without overexposed pixels) images. Number of pixels matching with the mask and their mean fluorescence intensity is extracted from all images (i.e. both channels and every exposure time). Normalized binding intensity (NBI) is then calculated as a ratio of mean fluorescence intensity from GFP channel and mean fluorescence intensity from Atto647 channel for every pair of images. (b) Image segmentation and liposome counting. […] CellProfiler software is used to segment the image to retrieve a mask representing liposome membranes, and also to search for centers of liposomes that are then used for estimating a number of liposomes analyzed per image. […]

[2] = Liposome array lipid-binding profile, normalized binding intensity (NBI); conditions: GFP-tagged fusion, cell lysate, 20 min incubation
Source text: (§1) FIG. 13: High-throughput image processing and calculation of normalized binding intensity. (a) Image processing pipeline. Multiple images are acquired, one exposure time for Atto647 and multiple exposure times for GFP to capture broad range of binding intensities, from strong (short exp. times) to weak (longer exp. times). All images are then processed with CellProfiler software. After removal of background, the Atto647 image is used for segmentation to obtain a mask representing position of liposome membranes. In parallel the combination of overexposed pixels from both channels (Atto647 and GFP) is removed from every pair of Atto647 and GFP image. Subsequently, a mask is applied to all filtered (i.e. without overexposed pixels) images. Number of pixels matching with the mask and their mean fluorescence intensity is extracted from all images (i.e. both channels and every exposure time). Normalized binding intensity (NBI) is then calculated as a ratio of mean fluorescence intensity from GFP channel and mean fluorescence intensity from Atto647 channel for every pair of images. […] CellProfiler software is used to segment the image to retrieve a mask representing liposome membranes, and also to search for centers of liposomes that are then used for estimating a number of liposomes analyzed per image. […] Fluorescence signal was analysed via a high-throughput image analysis pipeline (FIG. 13). […]

[3] = Akt PH domain binding to liposome array, wide-field fluorescence microscopy; conditions: E. coli lysate with fluorescently labelled domain, 30 minutes incubation, PBS wash
Source text: (§2) The Akt Pleckstrin Homology (PH) domain (positions 6 to 110) is known to specifically bind to PI-(3,4)-P2 and PI-(3,4,5)-P3 and is thus, used as a model system to evaluate the specificity and sensitivity of assays performed using the liposome array. The fluorescently labelled Akt PH domain is expressed in Escherichia coli, cells are lysed by sonication and after a centrifugation at 10000 g, supernantant is recovered and injected in the microchip. Several liposome arrays each comprising liposomes formed from different lipids are produced. Liposomes either comprised POPC only, or a […] mol:mol mixture of POPC:DOPS, POPC:PI3P, POPC:PI4P, POPC:PI(3,4)P2, POPC:PI(3,5)P2, POPC:PI(4,5)P2, POPC:PI(3,4,5)P3 (all of which are purchased from Avanti polar lipids) as shown in FIG. 11(a) to (h), respectively.
(§3) E. coli lysate comprising the fluorescently labelled Akt PH domain is applied to the liposome array and incubated 30 minutes and washed with PBS buffer before imaging.

[4] = as above; conditions: E. coli lysate with fluorescently labelled domain, 30 minutes incubation, PBS wash; remark: listed apart in the source
Source text: as §2, §3

[5] = Liposome array lipid-binding profile, normalized binding intensity (NBI); conditions: GFP-tagged fusion, cell lysate, 20 min incubation; remark: listed apart in the source
Source text: as §1

[6] = as above; conditions: GFP-tagged fusion, cell lysate, 20 min incubation; remark: listed apart in the source
Source text: as §1

Row | Molecule | membrane recruitment [1] | interaction confirmed by NBI profile [2] | binding to liposomes [3] | binding to liposomes [4] | interaction confirmed by NBI profile [5] | interaction confirmed by NBI profile [6]
1 | Pkcγ: protein kinase C-γ, GFP-tagged fusion | calcium-dependent recruitment |  |  |  |  | 
2 | B1 |  | interactions | binds | binds | interactions | 
3 | B2 |  |  |  |  | interactions | interactions

Reference: patent US20150309057A1, “Giant Liposome Array for High-throughput Lipid-Interaction Screening” (EUROPEAN MOLECULAR BIOLOGY LABORATORY (EMBL), priority 2012, published 2015)
